# Test results as given in patent US20140242093A1, “METHODS AND COMPOSITIONS FOR MODULATING THE INNATE IMMUNE RESPONSE AND/OR MYOGENESIS IN A MAMMALIAN SUBJECT” (FRED HUTCHINSON CANCER RESEARCH CENTER, priority 2011, published 2014).
# B1: DUX4-s: short splice form of DUX4 (SEQ ID NO:112), keeps the double-homeobox domains, lacks the C-terminal activation domain (protein, listed as Homo sapiens)
# chain: MALPTPSDSTLPAEARGRGRRRRLVWTPSQSEALRACFERNPYPGIATRERLAQAIGIPEPRVQIWFQNERSRQLRQHRRESRPWPGRRGPPEGRRKRTAVTGSQTALLLRAFEKDRFPGIAAREELARETGLPESRIQIWFQNRRARHPGQGGRAPAQV
# Tested on: Human myoblasts
# Assay: Expression array of the innate immune response to lentiviral infection versus uninfected cells
# Assay type: cell-based
# Description: RNA was harvested from the lenti-viral infected cells and uninfected control cells at 24 hours after infection.
molecule,measurement,setting,value
B1,DEFB103A and DEFB103B transcripts,expression array,not
same,CCL2 expression ratio vs GFP (.fc),"gene CCL2 NM_002982.3, vs lenti-GFP, 24 hours after infection",0.44 log2 fold change
same,CCL2 expression ratio vs NoLenti (.fc),"gene CCL2 NM_002982.3, vs uninfected, 24 hours after infection",2.82 log2 fold change
same,CCL5 expression ratio vs GFP (.fc),"gene CCL5 NM_002985.2, vs lenti-GFP, 24 hours after infection",1.89 log2 fold change
same,CCL5 expression ratio vs NoLenti (.fc),"gene CCL5 NM_002985.2, vs uninfected, 24 hours after infection",4.33 log2 fold change
same,CXCL1 expression ratio vs GFP (.fc),"gene CXCL1 NM_001511.1, vs lenti-GFP, 24 hours after infection",0.20 log2 fold change
same,CXCL1 expression ratio vs NoLenti (.fc),"gene CXCL1 NM_001511.1, vs uninfected, 24 hours after infection",3.36 log2 fold change
same,CXCL2 expression ratio vs GFP (.fc),"gene CXCL2 NM_002089.3, vs lenti-GFP, 24 hours after infection",0.00 log2 fold change
same,CXCL2 expression ratio vs NoLenti (.fc),"gene CXCL2 NM_002089.3, vs uninfected, 24 hours after infection",1.09 log2 fold change
same,CXCL5 expression ratio vs GFP (.fc),"gene CXCL5 NM_002994.3, vs lenti-GFP, 24 hours after infection",0.82 log2 fold change
same,CXCL5 expression ratio vs NoLenti (.fc),"gene CXCL5 NM_002994.3, vs uninfected, 24 hours after infection",2.60 log2 fold change
same,CXCL6 expression ratio vs GFP (.fc),"gene CXCL6 NM_002993.2, vs lenti-GFP, 24 hours after infection",0.17 log2 fold change
same,CXCL6 expression ratio vs NoLenti (.fc),"gene CXCL6 NM_002993.2, vs uninfected, 24 hours after infection",1.77 log2 fold change
same,DDX58 expression ratio vs GFP (.fc),"gene DDX58 NM_014314.3, vs lenti-GFP, 24 hours after infection",0.02 log2 fold change
same,DDX58 expression ratio vs NoLenti (.fc),"gene DDX58 NM_014314.3, vs uninfected, 24 hours after infection",2.14 log2 fold change
same,DHX58 (LGP2) expression ratio vs GFP (.fc),"gene DHX58 NM_024119.2, vs lenti-GFP, 24 hours after infection",0.70 log2 fold change
same,DHX58 (LGP2) expression ratio vs NoLenti (.fc),"gene DHX58 NM_024119.2, vs uninfected, 24 hours after infection",3.04 log2 fold change
same,IFI6 expression ratio vs GFP (.fc),"gene IFI6 NM_022872.2, vs lenti-GFP, 24 hours after infection",−0.04 log2 fold change
same,IFI6 expression ratio vs NoLenti (.fc),"gene IFI6 NM_022872.2, vs uninfected, 24 hours after infection",5.05 log2 fold change
same,IFI16 expression ratio vs GFP (.fc),"gene IFI16 NM_005531.1, vs lenti-GFP, 24 hours after infection",0.68 log2 fold change
same,IFI16 expression ratio vs NoLenti (.fc),"gene IFI16 NM_005531.1, vs uninfected, 24 hours after infection",2.52 log2 fold change
same,IFI27 expression ratio vs GFP (.fc),"gene IFI27 NM_005532.3, vs lenti-GFP, 24 hours after infection",0.27 log2 fold change
same,IFI27 expression ratio vs NoLenti (.fc),"gene IFI27 NM_005532.3, vs uninfected, 24 hours after infection",7.60 log2 fold change
same,IFI35 expression ratio vs GFP (.fc),"gene IFI35 NM_005533.2, vs lenti-GFP, 24 hours after infection",0.92 log2 fold change
same,IFI35 expression ratio vs NoLenti (.fc),"gene IFI35 NM_005533.2, vs uninfected, 24 hours after infection",4.33 log2 fold change
same,IFI44L expression ratio vs GFP (.fc),"gene IFI44L NM_006820.1, vs lenti-GFP, 24 hours after infection",0.47 log2 fold change
same,IFI44L expression ratio vs NoLenti (.fc),"gene IFI44L NM_006820.1, vs uninfected, 24 hours after infection",6.22 log2 fold change
same,IFI44 expression ratio vs GFP (.fc),"gene IFI44 NM_006417.3, vs lenti-GFP, 24 hours after infection",0.29 log2 fold change
same,IFI44 expression ratio vs NoLenti (.fc),"gene IFI44 NM_006417.3, vs uninfected, 24 hours after infection",3.59 log2 fold change
same,IFIH1 (MDA5) expression ratio vs GFP (.fc),"gene IFIH1 NM_022168.2, vs lenti-GFP, 24 hours after infection",1.66 log2 fold change
same,IFIH1 (MDA5) expression ratio vs NoLenti (.fc),"gene IFIH1 NM_022168.2, vs uninfected, 24 hours after infection",5.34 log2 fold change
same,IFIT1 expression ratio vs GFP (.fc),"gene IFIT1 NM_001548.3, vs lenti-GFP, 24 hours after infection",0.72 log2 fold change
same,IFIT1 expression ratio vs NoLenti (.fc),"gene IFIT1 NM_001548.3, vs uninfected, 24 hours after infection",5.50 log2 fold change
same,IFIT3 expression ratio vs GFP (.fc),"gene IFIT3 NM_001549.2, vs lenti-GFP, 24 hours after infection",1.81 log2 fold change
same,IFIT3 expression ratio vs NoLenti (.fc),"gene IFIT3 NM_001549.2, vs uninfected, 24 hours after infection",5.49 log2 fold change
same,IFIT5 expression ratio vs GFP (.fc),"gene IFIT5 NM_012420.1, vs lenti-GFP, 24 hours after infection",−0.28 log2 fold change
same,IFIT5 expression ratio vs NoLenti (.fc),"gene IFIT5 NM_012420.1, vs uninfected, 24 hours after infection",0.81 log2 fold change
same,IFITM1 expression ratio vs GFP (.fc),"gene IFITM1 NM_003641.3, vs lenti-GFP, 24 hours after infection",0.34 log2 fold change
same,IFITM1 expression ratio vs NoLenti (.fc),"gene IFITM1 NM_003641.3, vs uninfected, 24 hours after infection",7.08 log2 fold change
same,IFITM2 expression ratio vs GFP (.fc),"gene IFITM2 NM_006435.2, vs lenti-GFP, 24 hours after infection",0.01 log2 fold change
same,IFITM2 expression ratio vs NoLenti (.fc),"gene IFITM2 NM_006435.2, vs uninfected, 24 hours after infection",1.29 log2 fold change
same,IFITM3 expression ratio vs GFP (.fc),"gene IFITM3 NM_021034.2, vs lenti-GFP, 24 hours after infection",−0.13 log2 fold change
same,IFITM3 expression ratio vs NoLenti (.fc),"gene IFITM3 NM_021034.2, vs uninfected, 24 hours after infection",1.84 log2 fold change
same,IL1R1 expression ratio vs GFP (.fc),"gene IL1R1 NM_000877.2, vs lenti-GFP, 24 hours after infection",0.30 log2 fold change
